The values that follow come from patent publication US20200239585A1, “MODULATING THE IMMUNE RESPONSE USING ANTIBODY-DRUG CONJUGATES” (Seattle Genetics, Inc., priority 2017, published 2020).

For experiment [1], the system named is CD30+ cell lines. As to conditions: cited from earlier work.
Experiment [2] deals with Hodgkin disease xenograft. As to conditions: SCID mouse xenograft models of Hodgkin disease; cited from earlier work.
Experiment [3] deals with efflux pump activity of T cell subsets. The experiment can be described thus: rhodamine 123 efflux assay. It counts as cell-based, human. As to conditions: 37° C., 5-hour time-course; FIG. 9D. The procedure: Sensitivity of cells to many chemotherapies, including MMAE, is influenced by cell-intrinsic drug efflux activity. T cell subsets were evaluated for relative efflux pump activity using a rhodamine 123 efflux assay, following manufacturer's protocol (Chemicon International, Multidrug Resistance Direct Dye Efflux Assay). Enriched T cell populations were loaded with rhodamine 123, incubated in a 37° C. water bath, and were measured for loss of fluorescence over a 5-hour time-course by flow cytometry.

In experiment [4] the test system is inducible T regulatory cells (iTregs). The experiment can be described thus: iTreg viability on in vitro proliferation with a titration of BV or control IgG-MMAE. The experiment is classed as cell-based, human. As to conditions: CD3/CD28 beads, 4-5 days. Here is the method: CD4^+ T cells, isolated from healthy donor PBMC (Astarte Biologics, Bothell Wash.) were used to generate inducible T regulatory cells (iTregs). iTreg differentiation was performed over 1-2 weeks in 6-well tissue culture plates at 37° C. Cells were incubated with CD3/CD28 MACS iBead particles (Miltenyi biotec) at a 1:32 bead/cell ratio, in 2-3 ml of X-VIVO 15 media (Lonza) containing 1L-2 (50 ng/ml), TGFβ (50 ng/ml), and a 1:100 dilution of Lipid-Mixture 1 (Sigma-Aldrich). iTregs were evaluated for FoxP3 and CD30 expression by FACS analysis on an Attune NXT flow cytometer (Life Technologies). Following differentiation, individual donor iTreg populations ranged between 20-80% FoxP3^+ and 40-70% CD30^+.
To evaluate the effect of brentuximab vedotin (BV), and anti-CD30 antibody drug-conjugate on iTreg viability, cells were driven to proliferate in vitro in the presence of BV or control antibody drug-conjugate (IgG-MMAE). Briefly, iTregs were mixed with CD3/CD28 beads (8:1) in RPMI 10% FCS and were distributed at approximately 2.0×10^4 cells/well into a 96-well round-bottom plate. A titration of BV or control IgG-MMAE was added to replicate wells at the concentrations listed, for a final volume of 200 μl, and plates were incubated at 37° C. for 4-5 days. […]

Experiment [5] relates to iTregs and CD8+ T cells. Briefly: iTreg / CD8+ T cell co-culture suppression assay. It counts as cell-based, human. As to conditions: iTregs:CD8+ T cells 1:2, CD3/CD28 beads, four days, increasing concentrations, two donors; FIG. 2C, 2D. The procedure: As shown in FIG. 2A and FIG. 2B, increasing the iTreg/CD8^+ T cell ratio, for each donor, further abrogated T cell expansion, confirming suppressive function. To evaluate the effect of BV on iTreg suppression in vitro, co-culture suppression assays were performed. iTregs and CD8^+ T cells were mixed at a 1:2 ratio and combined with CD3/CD28 beads. Replicate wells were treated with a titration of BV or control IgG-MMAE. After four days of culture, viable iTregs and CD8^+ T cells were quantified by flow cytometry.

The test system of experiment [6] is CD25hi CD127lo T regulatory cells. Briefly: activated peripheral blood Treg depletion in vitro. The experiment is classed as cell-based, human. Particulars: four separate donors, CD3/CD28 beads+IL-2, 4-5 days; FIG. 3A. Here is the method:
(§1) CD25^hi CD127^lo T regulatory cells or CD8^+ T cells, enriched from peripheral blood derived leukoreduction system (LRS) chambers, were plated with CD3/CD28 beads+IL-2 in round-bottom 96-well tissue culture plates for 4-5 days with a titration of BV or control IgG-MMAE. On the final day of the assay, cells were stained as described above (viability dye and αCD30-PE antibody) and evaluated by flow cytometry.

The subject of experiment [7] is CD8+ T cells. The experiment can be described thus: activated peripheral blood CD8+ T cell depletion in vitro. The experiment is classed as cell-based, human. Particulars: up to 10 μg/ml of BV, CD3/CD28 beads+IL-2, 4-5 days; FIG. 3B. Here is the method:
as §1

For experiment [8], the system named is human T regulatory cells and CD8+ T cells. Briefly: xeno-GVHD model, human T cell subtypes in spleen. The experiment is classed as in vivo, NSG mice.
Experiment [9] has as its system peripheral blood T cell subsets. The experiment can be described thus: immunophenotyping of peripheral blood in classical Hodgkin lymphoma patients after BV. The experiment is classed as in vivo, human. From the text:
The effects of BV on circulating immune cells has not previously been fully elucidated. Sixty-two patients adult patients with classical Hodgkin lymphoma (cHL) that had relapsed or was refractory to frontline chemotherapy were enrolled in a study to evaluate treatment with BV. Patients were excluded if they previously received prior salvage therapy, including salvage radiotherapy, for refractory cHL; BV or any immuno-oncology therapy affecting the PD-1, CTLA4, or CD137 pathways; and/or allogeneic or autologous stem cell transplant (ASCT). BV was administered to the patients at a dose of 1.8 mg/kg on Day 1 and the patients were assessed on Day 8. Immunophenotyping of peripheral blood by flow cytometry was performed by Q2 Solutions on heparinized whole blood. Cell pellets, resulting from plasma banking, were sent to Adaptive for T Cell Receptor β (TCRβ) sequencing. Peripheral blood mononuclear cells were isolated from CPT tubes, frozen, and then analyzed in batches by Caprion using their intracellular cytokine staining platform following peptide stimulation.

For “cAC10: chimeric IgG1 monoclonal antibody that specifically binds CD30”, the “growth of CD30+ cell lines in vitro” value in [1] is on record as “induces growth arrest”. For the same molecule, the antitumor activity entry in [2] was “pronounced antitumor activity”.
In the case of rhodamine 123 [rhodamine-123], in experiment [3], the “clearance of intracellular rhodamine-123 in CD8+ T cells” value was “rapid clearance” and the “rhodamine-123 efflux in T regulatory cells among T cell subsets” value is reported as “slowest”.

B1: brentuximab vedotin (conjugate)
VH: QIQLQQSGPEVVKPGASVKISCKASGYTFTDYYITWVKQKPGQGLEWIGWIYPGSGNTKYNEKFKGKATLTVDTSSSTAFMQLSSLTSEDTAVYFCANYGNYWFAYWGQGTQVTVSA
VL: DIVLTQSPASLAVSLGQRATISCKASQSVDFDGDSYMNWYQQKPGQPPKVLIYAASNLESGIPARFSGSGSGTDFTLNIHPVEEEDAATYYCQQSNEDPWTFGGGTKLEIK
Turning to B1, in [4] (FIG. 1B), the “numbers of CD30+ iTregs” value is listed as “enhanced depletion”. Further, in [4] (five separate donors, FIG. 1A), the “total viable iTreg numbers” value was “dose-dependent reduction”. Also, in experiment [5], the “CD8+ T cell accumulation in co-culture” value is on record as “augmented” and the “viable iTregs in co-culture” value is on record as “selectively reduced”. Moreover, the “viable CD30+ Treg numbers” value in experiment [6] is reported as “dose-dependent reduction”. Also, in experiment [7], the “depletion of CD30+ CD8+ T cells” value is “did not deplete”. In addition, the “human T regulatory cells in the spleen” value in [8] (single i.p. 3 mg/kg on day 5, spleens on day 12, compared to PBS alone, FIG. 4A) is “significantly reduced”. Also, the “splenic CD8+ T cells” value in [8] (single i.p. 3 mg/kg on day 5, spleens on day 12, FIG. 4B) was “unaffected by BV treatment with a trend toward increased numbers”. In [8] (single i.p. 3 mg/kg on day 5, spleens on day 12, FIG. 4C), the “CD8+ T cell/Treg ratio in vivo” value is listed as “increased”. The “reduction of CD30+ regulatory T cells compared to reduction of other CD30+ T helper cells” value in [9] (1.8 mg/kg on Day 1, assessed on Day 8) was “more significantly”. For the same molecule, the “T helper cell subset populations including regulatory T cells” value in experiment [9] (1.8 mg/kg on Day 1, assessed on Day 8, peripheral blood, FIG. 5) was “reduction”. Besides, the “number of CD30-expressing regulatory T cells in the peripheral blood” value in experiment [9] (1.8 mg/kg on Day 1, assessed on Day 8, FIG. 7) is on record as “significantly reduced”. The “number of CD30+ T regulatory cells as compared to CD30− T regulatory cells” value in experiment [9] (single treatment, versus baseline, FIG. 7) is listed as “reduced”.
